Tests used:
[1] = biological target: T1, CC chemokine receptor 4 (CCR4) (human, UniProt P51679 1-360); experiment: flow cytometry on HH cells, KW-0761 conjugated to Ax680
T1 construct: whole, on cells; No recombinant CCR4 was used; also called CD194
T1 sequence (looked up): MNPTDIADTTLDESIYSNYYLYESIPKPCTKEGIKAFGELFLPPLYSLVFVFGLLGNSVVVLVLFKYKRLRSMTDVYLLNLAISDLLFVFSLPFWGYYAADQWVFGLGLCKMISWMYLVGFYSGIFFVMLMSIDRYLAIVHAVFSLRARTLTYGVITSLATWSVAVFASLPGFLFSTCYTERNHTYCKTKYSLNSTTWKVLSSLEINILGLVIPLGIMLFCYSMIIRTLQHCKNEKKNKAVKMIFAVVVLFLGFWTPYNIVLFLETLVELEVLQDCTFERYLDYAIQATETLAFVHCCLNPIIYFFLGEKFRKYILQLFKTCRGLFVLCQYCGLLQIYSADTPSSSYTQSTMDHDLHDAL
Protocol: CCR4 was analyzed by FCM.
Dead cells were gated out by staining with violet amine-reactive viability dye, LIVE-DEAD violet (Invitrogen). Intracellular staining was performed using the Foxp3/Transcription Factor Staining Kit (Affymetrix) per the manufacturer's instructions. CCR4-CAR and CD19-CAR expression were detected by biotinylated antihuman Fab antibody and anti-mouse Fab antibody (Jackson ImmunoResearch), respectively. […] Data were collected either by a Fortessa LSRII or LSR II cytometer (BD Biosciences) and analyzed using FlowJo version 10 software (Tree Star).

[2] = biological target: T1, CC chemokine receptor 4 (CCR4); experiment: flow cytometry on HH cells transduced with the CAR; reduced staining by the parent mAb
[3] = biological target: T1, CC chemokine receptor 4 (CCR4); experiment: flow cytometry on HH cells transduced with the CAR; loss of staining by the parent mAb

B1: anti-CCR4 monoclonal antibody clone KW-0761 (mogamulizumab) (antibody, V domains shown)
VH: EVQLVESGGDLVQPGRSLRLSCAASGFIFSNYGMSWVRQAPGKGLEWVATISSASTYSYYPDSVKGRFTISRDNAKNSLYLQMNSLRVEDTALYYCGRHSDGNFAFGYWGQGTLVTVSS
VL: DVLMTQSPLSLPVTPGEPASISCRSSRNIVHINGDTYLEWYLQKPGQSPQLLIYKVSNRFSGVPDRFSGSGSGTDFTLKISRVEAEDVGVYYCFQGSLLPWTFGQGTKVEIK
notes: also called anti-CCR4 clone KW monoclonal antibody
Does B1 bind [1]?
Result: binds

B2: CCR4(KW_L2H)-CAR (other)
chain: GSDVLMTQSPLSLPVTPGEPASISCRSSRNIVHINGDTYLEWYLQKPGQSPQLLIYKVSNRFSGVPDRFSGSGSGTDFTLKISRVEAEDVGVYYCFQGSLLPWTFGQGTKVEIKGGGGSGGGGSGGGGSGGGGSEVQLVESGGDLVQPGRSLRLSCAASGFIFSNYGMSWVRQAPGKGLEWVATISSASTYSYYPDSVKGRFTISRDNAKNSLYLQMNSLRVEDTALYYCGRHSDGNFAFGYWGQGTLVTVSSSGTTTPAPRPPTPAPTIASQPLSLRPEACRPAAGGAVHTRGLDFACDIYIWAPLAGTCGVLLLSLVITLYCKRGRKKLLYIFKQPFMRPVQTTQEEDGCSCRFPEEEEGGCELRVKFSRSADAPAYKQGQNQLYNELNLGRREEYDVLDKRRGRDPEMGGKPRRKNPQEGLYNELQKDKMAEAYSEIGMKGERRRGKGHDGLYQGLSTATKDTYDALHMQALPPR
notes: Chimeric antigen receptor on the surface of transduced HH cells or primary T cells
Does B2 bind [2]?
Result: binds

B3: CCR4(h1567_L2H)-CAR (other)
chain: DIVMTQSPDSLAVSLGERATINCKSSQSILYSSNQKNYLAWYQQKPGQSPKLLIYWASTRESGVPDRFSGSGSGTDFTLTISSLQAEDVAVYYCHQYLSSYTFGQGTKLEIKGGGGSGGGGSGGGGSGGGGSQVQLVQSGAEVKKPGASVKVSCKASGYTFASYYMHWMRQAPGQGLEWIGWINPGNVNTKYNEKFKGRATLTVDTSTNTAYMELSSLRSEDTAVYYCARSTYYRPLDYWGQGTLVTVSS
notes: Chimeric antigen receptor on the surface of transduced HH cells or primary T cells; also called CCR4-CAR(h1567_L2H); not shown: second-generation CAR backbone (CD8 hinge and transmembrane, 4-1BB, CD3 zeta); the fu
Does B3 bind [3]?
Result: binds

From patent publication US20240122981A1 (University of Pennsylvania, published 2024)
